Data taken from patent publication US7314724B2, “Therapeutic applications of laminin and laminin-derived protein fragments” (University of Washington, priority 1996, dated 2008).
“Also recorded” adds a separate entry of the source.

Experiments:
Aβ (1-40) = target: T1, Aβ (1-40) (Homo sapiens, UniProt P05067); experiment: Thioflavin T fluorometry, Aβ (1-40) amyloid fibril formation; assay type: biochemical; details: comparison of basement membrane components (FIG. 3), 25 μM Aβ (1-40), 100 nM, 1 hour to 1 week
T1 construct: 2 μg of Aβ (1-40)(Bachem Inc., Torrance, Calif. USA; Lot #WM365); purchased Bachem Inc., Torrance, Calif; Lot #WM365
Method: The effects of laminin on Aβ fibrillogenesis was also determined using the previously described method of Thioflavin T fluorometry (Naiki et al, Lab. Invest. 65:104-110, 1991; Levine III, Protein Sci. 2:404-410, 1993; Levine III, Int. J. Exp. Clin. Invest. 2:1-6, 1995; Naiki and Nakakuki, Lab. Invest. 74:374-383, 1996). In this assay, Thioflavin T binds specifically to fibrillar amyloid and this binding produces a fluorescence enhancement at 480 nm that is directly proportional to the amount of amyloid fibrils formed (Naiki et al, Lab. Invest. 65:104-110, 1991; Levine III, Protein Sci. 2:404-410, 1993; Levine III, Int. J. Exp. Clin. Invest. 2:1-6, 1995; Naiki and Nakakuki, Lab. Invest. 74:374-383, 1996). In a first study, the effects of EHS laminin on Aβ (1-40) fibrillogenesis was assessed. For this study, 25 μM of freshly solubilized Aβ (1-40)(Bachem Inc., Torrance, Calif., USA; Lot #WM365) was incubated in microcentrifuge tubes at 37° C. for 1 week (in triplicate), either alone, or in the presence of 100 nM EHS laminin (Sigma Chemical Company, St. Louis, Mo., USA) in 100 mM Tris, 50 mM NaCl, pH 7.0 (TBS). 100 nM of laminin utilized for these studies represented a Aβ:laminin molar ratio of 250:1. 50 μl aliquots were then taken from each tube for analysis at 1 hr, 1 day, 3 days, and 1 week. In a second set of studies, the effects of laminin on Aβ (1 -40) fibril formation was directly compared to other basement membrane components including fibronectin, type IV collagen and perlecan. For these studies, 25 μM of freshly solubilized Aβ (1-40) was incubated in microcentrifuge tubes for 1 week (in triplicate) either alone, or in the presence of 100 nM of EHS perlecan (isolated as previously described)(Castillo et al, J. Biochem. 120:433-444, 1996), fibronectin (Sigma Chemical Company, St. Louis, Mo., USA) or type IV collagen (Sigma Chemical Company, St. Louis, Mo., USA). 50 ul aliquots were then taken for analysis at 1 hour, 1 day, 3 days and 1 week. In a third set of studies, 25 μM of freshly solubilized Aβ (1-40) was incubated in microcentrifuge tubes for 1 week (in triplicate) either alone, or in the presence of increasing concentrations of laminin (i.e. 5 nM, 15 nM, 40 nM and 100 nM). 50 μl aliquots were taken for analysis at 1 hour, 1 day, 3 days and 1 week.
For each determination described above, following each incubation period, Aβ peptides +/− laminin, perlecan, fibronectin or type IV collagen, were added to 1.2 ml of 100 μM Thioflavin T (Sigma Chemical Co., St. Louis, Mo.) in 50 mM phosphate buffer (pH 6.0). Fluorescence emission at 480 nm was measured on a Turner instrument-model 450 fluorometer at an excitation wavelength of 450 nm. For each determination, the fluorometer was calibrated by zeroing in the presence of the Thioflavin T reagent alone, and by seting the 50 ng/ml riboflavin (Sigma Chemical Co., St. Louis, Mo.) in the Thioflavin T reagent to 1800 fluorescence units. All fluorescence determinations were based on these references and any background fluorescence given off by laminin, perlecan, type IV collagen, or fibronectin alone in the presence of the Thioflavin T reagent was always subtracted from all pertinent readings.

biotinylated Aβ (1-40) = target: T2, biotinylated Aβ (1-40) (Homo sapiens, UniProt P05067); experiment: Aβ ligand blot of undigested and V8-, trypsin- or elastase-digested EHS laminin; assay type: binding; details: 2 μM biotinylated Aβ (1-40), SDS-PAGE under non-reducing conditions
T2 construct: Aβ (1-40) was biotinylated according to the manufacturer's protocol (Pierce, Rockford, Ill.)
Method: For these experiments, Aβ (1-40) was biotinylated according to the manufacturer's protocol (Pierce, Rockford, Ill.). For the ligand studies, intact EHS laminin was left undigested, or digested with V8 or trypsin (Sigma Chemical Company, St. Louis, Mo., USA). More specifically, 2 μg of trypsin or V8 protease in 2 μl of 50 MM Tris-HCl buffer (pH 8.0) were added to 50 μl of laminin (50 μg)(in the same buffer) and incubated overnight at 37° C. The next day, 10 μl of protease-digested laminin (or undigested laminin) was mixed with 10 μl of 2× sodium dodecyl sulfate polyacrylamide gel electrophoresis (SDS-PAGE) sample buffer, and heated for 5 minutes in a boiling water bath. SDS-PAGE was performed according to the method of Laemmli (Laemmli, U.K. Nature 227:680-685, 1970), or according to the method of Schägger and Jagow (Schägger and Jagow, Anal. Biochem. 166:368-379, 1987) using a Mini-Protean II electrophoresis system (Biorad) with precast 4-15% Tris-Glycine or 10-20% tricine polyacrylamide gels, respectively, and under non-reducing conditions. Electrophoresis occurred at 200V for 45 minutes along with pre-stained molecular weight standards. After SDS-PAGE (10-20% tricine or 4-15% Tris-Glycine gels) was performed as described above, the separated laminin and its fragments (total protein of 10 μg/lane) were transferred to polyvinylidine difluoride membrane (PVDF) using a Mini transblot electrophoresis transfer cell (Biorad, Hercules, Calif., U.S.A.). Electrotransfer was performed at 100V for 2 hours. Following transfer, membranes were rinsed with methanol and dried. The fragment(s) of laminin involved in binding to Aβ were then detected by using biotinylated-Aβ (1-40), as described above. Blots were probed for 2 hours with 2 μM biotinylated Aβ (1-40) in TTBS. The membranes were then rinsed three times (10 seconds each) with TTBS, probed for 30 minutes with strepavidin alkaline phosphatase conjugate (Vectastain), rinsed again (as described above), and followed by the addition of an alkaline phosphatase substrate solution (Vectastain). Following color development, the reaction was stopped by flushing the membranes with double distilled water. In the next set of studies, we determined whether small fragment(s) of laminin generated by elastase digestion would bind to Aβ. […] For these experiments, Aβ (1-40) was biotinylated according to the manufacturer's protocol (Pierce, Rockford, Ill.). For the ligand studies, intact EHS laminin was left undigested, or digested with elastase (Sigma Chemical Company, St. Louis, Mo., USA). For elastase digestion, 2 μg of elastase in 8 μl of 50 mM Tris-HCl buffer (pH 8.0) was added to 50 μl of laminin (50 μg)(in the same buffer) and incubated for 1.5 hours or 2.5 hours at 37° C. In addition, as a control, 2 μg of elastase in 50 μl of 50 mM Tris-HCl buffer (pH 8.0) was incubated for 2.5 hours at 37° C. Following the appropriate incubation times as described above, 10 μl of each of the above incubations were mixed with 10 μl of 2× SDS-PAGE electrophoresis sample buffer, and heated for 5 minutes in a boiling water bath. SDS-PAGE was performed according to the method of Laemmli (Laemmli, Nature 227:680-685, 1970) using a Mini-Protean II electrophoresis system with precast 4-15% Tris-Glycine polyacrylamide gels, and under non-reducing conditions. Electrophoresis occurred at 200V for 45 minutes along with pre-stained molecular weight standards (Biorad). After SDS-PAGE was performed as described above, the separated laminin fragments were transferred to PVDF using a Mini transblot electrophoresis transfer cell (Millipore, Bedford, Mass., U.S.A.). Electrotransfer was performed at 100V for 2 hours. Following transfer, membranes were rinsed with methanol, dried and cut into two equal parts which were used for Aβ ligand blotting, or Coomassie blue staining and subsequent amino acid sequencing. The fragment(s) of laminin involved in binding to Aβ were then detected by using biotinylated-Aβ (1-40), as described above. […]

T1 sequence (P05067 672-711 limits assumed): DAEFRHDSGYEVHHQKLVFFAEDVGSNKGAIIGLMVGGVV
T2 sequence (P05067 672-711 limits assumed): as above

Row | Molecule | effect on Aβ (1-40) fibrillogenesis, in words (Aβ (1-40)) | effect on Aβ (1-40) fibrillogenesis, in words (Aβ (1-40); listed as Perlecan) | interaction with biotinylated Aβ (1-40) on ligand blot, in words (biotinylated Aβ (1-40)) | interaction with biotinylated Aβ (1-40) on ligand blot, in words (biotinylated Aβ (1-40); listed as 55 kDa laminin fragment) | interaction with biotinylated Aβ (1-40) on ligand blot, in words (biotinylated Aβ (1-40); listed as ˜55 kDa) | interaction with biotinylated Aβ (1-40) on ligand blot, in words (biotinylated Aβ (1-40); listed as ˜55 kilodalton fragment) | interaction with biotinylated Aβ (1-40) on ligand blot, in words (biotinylated Aβ (1-40); listed as ˜55 kilodalton laminin fragment)
1 | perlecan: EHS perlecan, basement membrane component used as comparison [reference compound] | not effective inhibitors | significantly accelerate Aβ (1-40) amyloid formation at 1 day and 3 days |  |  |  |  | 
2 | fibronectin [reference compound] | not effective inhibitors; also recorded: only showed significant inhibition of Aβ (1-40) fibrillogenesis at 1 week |  |  |  |  |  | 
3 | ˜55 kilodalton (kDa) laminin fragment: ˜55 kDa Aβ-binding fragment from V8 or elastase digested mouse EHS laminin; within globular repeats of the laminin A chain (E3 region) (protein) HREHGELPPEPPTLPQPELCAVDTAPGYVAGAHQFGLSQNSHLVLPLNQSDVRKRLQVQLSIRTFASSGLIYYVAHQNQMDYATLQLQEGRLHFMFDLGKGRTKVSHPALLSDGKWHTVKTEYIKRKAFMTVDGQESPSVTVVGNATTLDVERKLYLGGLPSHYRARNIGTITHSIPACIGEIMVNGQQLDKDRPLSASAVDRCYVVAQEGTFFEGSGYAALVKEGYKVRLDLNITLEFRTTSKNGVLLGISSAKVDAIGLEIVDGKVLFHVNNGAGRITATYQPRAARALCDGKWHTLQAHKSKHRIVLTVDGNSVRAESPHTHSTSADTNDPIYVGGYPAHIKQNCLSSRASFRGCVRNLRLSRGSQVQSLDLSRAFDLQGVFPHSCPGPEP |  |  | interact with biotinylated Aβ (1-40) | positive Aβ binding interaction | interacted with Aβ (1-40) | interacts with Aβ | binds biotinylated Aβ
